Source: publication PMC12996321

Key:
[1] = target: recombinant human histone octamer assembled into mononucleosomes on 250 bp 601 Widom DNA (human) (UniProt Q71DI3); experiment: single-molecule TIRF colocalisation
Halo-Sox2 = Halo-Sox2 (UniProt P48432 1-319); experiment: single-molecule TIRF
Chain of Halo-Sox2 (P48432 whole entry): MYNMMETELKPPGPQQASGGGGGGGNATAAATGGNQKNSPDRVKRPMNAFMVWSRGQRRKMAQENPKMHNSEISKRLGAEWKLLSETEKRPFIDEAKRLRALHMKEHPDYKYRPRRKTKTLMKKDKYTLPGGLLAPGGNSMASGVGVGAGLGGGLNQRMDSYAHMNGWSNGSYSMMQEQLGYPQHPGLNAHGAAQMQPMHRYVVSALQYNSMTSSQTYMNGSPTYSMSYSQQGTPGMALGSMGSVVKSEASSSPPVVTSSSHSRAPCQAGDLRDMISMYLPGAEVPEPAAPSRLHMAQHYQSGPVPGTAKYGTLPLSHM

Chain of Halo-Sox2 (recombinant, JF549-labelled) (P48432 whole entry): as above

Row | residence time tau2 on MN-6 (state attributed to TF-histone interactions) [1] | Molecule | binding result (Halo-Sox2)
1 | 3.4 s | Halo-Sox2 (recombinant, JF549-labelled) (from UniProt P48432 1-319) (natural protein) | 
2 |  | Sdna3 DNA+ 50 bp (dsDNA) DNA 1: AGCACCGCTTAAACGCACGTACGCTTTGTTCCCCGCGTTTTAACCGCCAA DNA 2: TTGGCGGTTAAAACGCGGGGAACAAAGCGTACGTGCGTTTAAGCGGTGCT | binds
